This passage reports Kd results from the Immune Epitope Database (IEDB).

Assay [1] deals with HLA-A*26:02. In words: IEDB peptide-MHC binding, purified MHC/direct/fluorescence; filed as Kd, often an IC50 or EC50 that approximates it; ≥ and ≤ were set here for values at or beyond the usual limits of such assays.
The target of assay [2] is HLA-A*26:01. Described as above.
For assay [3], the target named is HLA-B*46:01. In words: IEDB peptide-MHC binding, purified MHC/competitive/fluorescence; filed as Kd, often an IC50 or EC50 that approximates it; ≥ and ≤ were set here for values at or beyond the usual limits of such assays. The settings on record: source organism: Giardia lamblia ATCC 50803.
Assay [4] deals with HLA-B*57:01. The description is as above. As to conditions: source organism: Giardia lamblia ATCC 50803.
The target in assay [5] is HLA-B*39:01. The description is as above. As to conditions: source organism: Giardia lamblia ATCC 50803.
In assay [6] the target is HLA-B*51:01. The description is as above. As to conditions: source organism: Giardia lamblia ATCC 50803.
The target of assay [7] is HLA-B*27:03. The assay is described as above. As to conditions: source organism: Giardia lamblia ATCC 50803.
Assay [8] addresses HLA-A*69:01. The assay is described as above. The settings on record: source organism: Giardia lamblia ATCC 50803.
Assay [9] concerns the target HLA-B*18:01. The assay is described as above. The settings on record: source organism: Giardia lamblia ATCC 50803.
Assay [10] deals with HLA-A*02:01. Described as above. As to conditions: source organism: Giardia lamblia ATCC 50803.
Assay [11] concerns the target HLA-A*26:01. The assay is described as above. As to conditions: source organism: Giardia lamblia ATCC 50803.
Assay [12] addresses HLA-B*15:17. The assay is described as above. The settings on record: source organism: Giardia lamblia ATCC 50803.
Assay [13] deals with HLA-A*68:02. In words: IEDB peptide-MHC binding, purified MHC/direct/fluorescence; filed as Kd, often an IC50 or EC50 that approximates it; ≥ and ≤ were set here for values at or beyond the usual limits of such assays.
Assay [14] addresses HLA-A*11:01. Described as above.
Assay [15] deals with HLA-A*24:03. Described as above. The settings on record: source organism: Giardia lamblia ATCC 50803.
The target in assay [16] is HLA-A*02:19. Described as above. As to conditions: source organism: Giardia lamblia ATCC 50803.
For assay [17], the target named is HLA-A*02:03. The assay is described as above. As to conditions: source organism: Giardia lamblia ATCC 50803.
Assay [18] addresses HLA-A*02:12. The assay is described as above. As to conditions: source organism: Giardia lamblia ATCC 50803.
In assay [19] the target is HLA-A*23:01. The assay is described as above. As to conditions: source organism: Giardia lamblia ATCC 50803.
For assay [20], the target named is HLA-A*29:02. Described as above. As to conditions: source organism: Giardia lamblia ATCC 50803.
The target of assay [21] is HLA-A*03:01. The description is as above.
The target in assay [22] is HLA-A*02:06. In words: IEDB peptide-MHC binding, purified MHC/competitive/fluorescence; filed as Kd, often an IC50 or EC50 that approximates it; ≥ and ≤ were set here for values at or beyond the usual limits of such assays.
For assay [23], the target named is HLA-B*46:01. In words: IEDB peptide-MHC binding, purified MHC/direct/fluorescence; filed as Kd, often an IC50 or EC50 that approximates it; ≥ and ≤ were set here for values at or beyond the usual limits of such assays.
The target in assay [24] is HLA-B*27:05. Described as above.
Assay [25] addresses HLA-B*07:02. Described as above.
Assay [26] deals with HLA-A*01:01. The description is as above.
Assay [27] concerns the target HLA-B*57:01. The description is as above.
The target in assay [28] is HLA-B*40:01. The description is as above. The settings on record: source organism: Vibrio parahaemolyticus.
Assay [29] deals with HLA-B*15:01. The description is as above.
For assay [30], the target named is HLA-B*08:02. The description is as above.
The target in assay [31] is HLA-A*31:01. The description is as above.
For assay [32], the target named is HLA-B*48:01. The assay is described as above.
Assay [33] deals with HLA-B*08:01. Described as above.
The target in assay [34] is HLA-B*08:03. Described as above.
Assay [35] deals with HLA-B*18:01. Described as above. The settings on record: source organism: Vibrio parahaemolyticus.
For assay [36], the target named is HLA-B*58:01. Described as above.
Assay [37] deals with HLA-A*02:01. The assay is described as above.
Assay [38] has as its target HLA-B*15:17. The assay is described as above.
Assay [39] addresses HLA-B*40:01. The experiment in a line: IEDB peptide-MHC binding, purified MHC/competitive/fluorescence; filed as Kd, often an IC50 or EC50 that approximates it; ≥ and ≤ were set here for values at or beyond the usual limits of such assays. The settings on record: source organism: Campylobacter jejuni subsp. jejuni BH-01-0142.
Assay [40] has as its target HLA-A*02:03. The assay is described as above. As to conditions: source organism: Campylobacter jejuni subsp. jejuni BH-01-0142.
Setting [41] is: source organism: Vibrio vulnificus CMCP6.
The mark [42] stands for this setting: source organism: Giardia lamblia ATCC 50803.
Setting [43] is: source organism: Vibrio parahaemolyticus RIMD 2210633.
The mark [44] stands for this setting: source organism: Vibrio parahaemolyticus.
Setting [45] is: source organism: Campylobacter jejuni.

Bounds are passed on as bounds.

For HVIASMRHF, the Kd in assay [1] (setting [41]) is at most 1 nM; in assay [2] (setting [41]), 2 nM.

The sequence LVALTLTSY came in with an equilibrium dissociation constant (Kd) in assay [1] (source organism: Yellow fever virus) of 180 nM. This counts as sub-micromolar.

As to RIYDPLWFQ, the Kd in assay [3], in assay [4], in assay [5], in assay [6], in assay [7] and in assay [8] was at least 20 µM throughout. Further, the Kd in [9] is at least 20 µM; in [10] it was at least 20 µM; in assay [11], at least 20 µM; in [12], at least 20 µM; in assay [13] (setting [42]) it was at least 20 µM; in assay [14] (setting [42]) it was 2930 nM. In addition, the dissociation constant Kd in assay [15], in [16], in assay [17], in [18], in assay [19] and in assay [20] was at least 20 µM each time. In assay [21] (setting [42]), this sequence showed a dissociation constant Kd of at least 20000 nM.

VFMDNAFKK: the Kd was 291 nM in assay [22] (setting [43]); at least 20 µM in assay [13] (setting [44]); 131 nM in [14] (setting [44]); at least 20 µM in [23] (setting [44]); at least 20 µM in assay [24] (setting [44]); at least 20 µM in assay [25] (setting [44]). The dissociation constant (Kd) in [26] (setting [44]) was at least 20 µM; in [27] (setting [44]), at least 20 µM; in assay [28], at least 20 µM; in assay [1] (setting [43]) it was at least 20000 nM; in assay [29] (setting [44]) it was at least 20 µM; in assay [30] (setting [43]), at least 20 µM. The Kd was 2.21 µM in assay [31] (setting [44]); at least 20 µM in assay [32] (setting [44]); at least 20 µM in assay [33] (setting [43]); at least 20 µM in [34] (setting [43]); at least 20 µM in assay [35]; at least 20 µM in assay [36] (setting [44]). In addition, the Kd in [37] (setting [44]) is at least 20 µM; in assay [38] (setting [44]) it was at least 20 µM; in [21] (setting [44]), 1380 nM.

For the sequence VSIRGSHHK, the Kd in assay [22] (source organism: Campylobacter jejuni subsp. jejuni BH-01-0142) was 5130 nM; in [39], 3.19 µM; in assay [40], 3.41 µM; in [13] (setting [45]), at least 20 µM; in assay [14] (setting [45]) it was 91 nM; in assay [23] (setting [45]), at least 20 µM. Besides, the equilibrium dissociation constant (Kd) was at least 20 µM in assay [24] (setting [45]); at least 20 µM in assay [25] (setting [45]); at least 20 µM in assay [26] (setting [45]); at least 20 µM in assay [27] (setting [45]); at least 20000 nM in [1] (setting [45]); at least 5 µM in assay [29] (setting [45]). Also, the Kd is at least 20 µM in assay [30] (setting [45]); 4.88 µM in assay [31] (setting [45]); at least 20 µM in assay [32] (setting [45]); at least 20 µM in assay [33] (setting [45]); at least 20 µM in assay [34] (setting [45]); at least 20 µM in assay [36] (setting [45]). Further, the equilibrium dissociation constant (Kd) in [37] (setting [45]) was at least 20 µM; in assay [2] (setting [45]), at least 20000 nM; in [38] (setting [45]) it was at least 20 µM; in assay [21] (setting [45]), 145 nM.

Broadly, the Kd is a measure of binding affinity in units of concentration.
